Read-outs that look alike come from different tables or passages of the source.
T1: CD154 expressed on D1.1 Jurkat cells (UniProt P29965 1-261, limits assumed)
T1 sequence (looked up): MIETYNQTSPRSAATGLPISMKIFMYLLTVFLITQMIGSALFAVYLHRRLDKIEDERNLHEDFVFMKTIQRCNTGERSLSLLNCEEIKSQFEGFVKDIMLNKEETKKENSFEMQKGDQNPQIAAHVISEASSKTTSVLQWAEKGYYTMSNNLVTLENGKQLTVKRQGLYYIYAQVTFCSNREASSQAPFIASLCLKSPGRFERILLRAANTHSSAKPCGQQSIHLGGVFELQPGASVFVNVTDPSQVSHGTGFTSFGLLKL

T2: Myc-tagged CD154 (UniProt P29965 116-261, limits assumed)
T2 construct: Captured on the ELISA plate by anti-Myc antibody 9E10; The order of tag and CD154 is not known; also called CD40L; not shown: Myc tag
T2 sequence (looked up): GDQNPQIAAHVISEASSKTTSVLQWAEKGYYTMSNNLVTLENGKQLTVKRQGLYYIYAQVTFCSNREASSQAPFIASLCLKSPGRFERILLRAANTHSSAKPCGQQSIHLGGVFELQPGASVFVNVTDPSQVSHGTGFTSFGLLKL

B1: anti-CD154 antibody 381 Fab′ (Fab, V domains shown)
VH: EVPLVESGGGLVQPGRSMKLSCVASGFTFSDYYMAWVRQAPKKGLEWVASISYEGSSTYYGDSVKGRFTVSRDIAKSTLYLQMHSLKSEDTAIYYCARHDDSPGYYFDYWGQGVMVTVS
VL: DIQMTQSPTSLSASLGETVSIECLAGEDISNVLAWYQQKSGGSPQLLIYAANRLQDGVPSRFSGSGSGTRYSLKISGMRPEDEADYFCQQTFRYPLTFGSGTKLELK
B2: soluble human CD154 protein (extracellular domain) (ligand)
chain: T2 sequence (looked up)
notes: also called sCD154; recombinant extracellular domain of human CD154
B3: anti-CD154 antibody 338 (Fab, V domains shown)
VH: QVQLTESGPGLVQPSQTLSLTCTVSGFSLTSHHISWVRQPPGKGLEWVGVMWNDGGTLYNSALKSRPSISRDTSKSQVFLKMSSLQTEDTATYYCARGKMHYYVLDAWGQGASVTVS
VL: DIQMTQSPASLSASLGETVTIECRTSEDIYSNLAWYRQRPGKSPQLLIYDTNRLADGVPSRFSGSGSGTQYSLKINSLQSEDVASYFCQHYSNFPWTFGGDTKLELK
B4: chimeric 342 Fab′ (unlabeled 342 Fab′ of FIG. 29C) (Fab, V domains shown)
VH: QVQLKESGPGLVQPSETLSLTCTVSGFSSTNYHVHWVRQPPGKSLEWMGVIWGDGDTSYNSVLKSRLSITRDTSRSQVFLKMSSLQTEDTATYYCARQLTHYYVLAAWGQGASVTVS
VL: DIQMTQSPASLSASLGETVTVECRASEDLYYNLAWYQRKPGNSPQLLIYDTYRLADGVPSRFSGSGSGTQYSLKINTLPSGDVASYFCQQYYKFPFTFGSGTKLELK
notes: also called ch342 Fab
B5: 342 Fab′ (Fab, V domains shown)
VH: EVQLVESGGGLVQPGGSLRLSCAVSGFSSTNYHVHWVRQAPGKGLEWMGVIWGDGDTSYNSVLKSRFTISRDTSKNTVYLQMNSLRAEDTAVYYCARQLTHYYVLAAWGQGTLVTVSS
VL: DIQMTQSPSSLSASVGDRVTITCRASEDLYYNLAWYQRKPGKAPKLLIYDTYRLADGVPSRFSGSGSGTDYTLTISSLQPEDFASYYCQQYYKFPFTFGQGTKVEIKR
B6: humanized 342 Fab, graft gL4gH1 (Fab, V domains shown)
VH: B5 VH
VL: B5 VL

Assays:
[1] = biological target: T1, CD154 expressed on D1.1 Jurkat cells; test: cell-based or functional assay
[2] = biological target: B2; test: Biacore (SPR): antibody or Fab' captured on immobilized anti-human IgG (Fc- or Fab'-specific) F(ab')2, recombinant extracellular domain of human CD154 titrated over it (Example 4); chimaeric Fab'
Protocol: (§1) Catalogue Number: BR-1001-88, Biacore AB, Uppsala, Sweden. Buffer stored at 4° C. Immobilization buffer is Acetate 5.0 (being 10 mM sodium acetate pH 5.0). Catalogue number: BR-1003-51, Biacore AB, Uppsala, Sweden. Buffer stored at 4° C. Ligand capture: Affinipure F(ab′)₂ fragment goat anti-human IgG, Fab′ fragment specific (Catalogue number: 109-006-097) or Fc fragment specific (Catalogue number: 109-006-098), Jackson ImmunoResearch Inc (Pennsylvania, USA). Reagents stored at 4° C. […] Analyte: Recombinant extracellular domain of human CD154. Material was prepared at 2 mg/mL (40 μM) in phosphate-buffered saline, stored at 4° C., and diluted in HBE-EP running buffer for the assays. […] Regeneration Solution: 40 mM HCl prepared by dilution with distilled water from an 11.6 M stock solution (BDH, Poole, England. Catalogue number: 101254H). 5 mM NaOH prepared by dilution with distilled water from a 50 mM stock solution. Catalogue number: BR-1003-58, Biacore AB, Uppsala, Sweden. Assay Method: BIA (Biamolecular Interaction Analysis) was performed using a Biacore® 3000 (Biacore AB). Affinipure F(ab′)₂ fragment goat anti-human IgG, Fc- or Fab′-fragment specific (Jackson ImmunoResearch) were immobilized on a CM5 Sensor Chip via amine coupling chemistry to a capture level of ≈6000 response units (RUs). HBS-EP buffer (10 mM HEPES pH 7.4, 0.15 M NaCl, 3 mM EDTA, 0.005% Surfactant P20, Biacore AB) was used as the running buffer with a flow rate of 10 μl/min. Anti-CD154 antibodies or Fab fragments were used at concentrations such that, once captured by the immobilized anti-human IgG-Fc (or anti-human IgG Fab′) surface, gave a signal of ≈200 RUs. Human CD154 was titrated over the captured antibody, at various concentrations. 90 μL of CD154 was injected over the surface (association phase), followed by a 240 second dissociation phase, all at a flow rate of 30 μl/min. […] Background subtraction binding curves were analyzed using the BIAevaluation software (version 3.2) following standard procedures. Kinetic parameters were determined from the fitting algorithm.

[3] = biological target: T1, CD154 expressed on D1.1 Jurkat cells; test: flow cytometry: inhibition of the binding of hCD40-mFc-PE to CD154-expressing D1.1 Jurkat cells by serially diluted chimaeric Fab' (Example 5)
Protocol: (§2) A flow cytometry-based assay was used to assess the binding of labeled CD40 to CD154-expressing D1.1 cells. D1.1 Jurkat cells (American Type Culture Collection) were maintained in RPMI 1640 medium (Gibco, 31870-025)) containing 10% (v/v) fetal calf serum (FCS), 2 mM glutamine (Invitrogen, 23030024), 1 mM sodium pyruvate (Invitrogen, 11360-039), 1% (v/v) D-(+)-glucose (Sigma, G8769) & 10 mM HEPES (Sigma, H0887). At time of assay, 100,000 D1.1 cells were incubated in 100 μL RPMI 1640 medium+10% FCS, in the presence or absence of serially diluted anti-CD154 antibody for 15 minutes at room temperature. 5 μL of a 1:75 dilution of hCD40-mFc-PE (Alexis Corp, ANC-504-050) was then added and incubated for a further 30 minutes at room temperature. After washing twice in phosphate-buffered saline (PBS) containing 1% (w/v) bovine serum albumin (BSA fraction V, Serologicals Proteins Inc, 81-068-5) and 0.02% (w/v) sodium azide (BDH, 103692K), cells were resuspended in 200 μL PBS/1% BSA/0.02% sodium azide and flow cytometry performed on a Becton Dickinson FACScan. The values for geometric mean fluorescence (FL2) were assessed in all cases.

[4] = biological target: T3, CD40hFc (human CD40 fusion protein) (human, UniProt P25942 21-193, limits assumed); test: Biacore (SPR), sequential injections: CD40hFc captured, then soluble CD154 (ECD); concentrations not given (Example 10)
T3 construct: not shown: human Fc (hFc)
T3 sequence (P25942 21-193 limits assumed): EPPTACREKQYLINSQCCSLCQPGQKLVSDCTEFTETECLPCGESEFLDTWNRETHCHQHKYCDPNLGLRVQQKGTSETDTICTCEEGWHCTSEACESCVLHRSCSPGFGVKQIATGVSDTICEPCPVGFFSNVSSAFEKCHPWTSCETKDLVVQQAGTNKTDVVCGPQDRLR

CD40:sCD154 complex = biological target: T4, CD40:sCD154 complex (human, UniProt P25942 21-193, limits assumed); test: Biacore (SPR): CD40hFc captured, ECD bound, then buffer or Fab injected; concentration not given (Example 10)
T4 construct: also called CD40:CD154 complex; not shown: human Fc (hFc)
T4 sequence (P25942 21-193 limits assumed, one chain of several): as the sequence (P25942 21-193 limits assumed) above

[5] = biological target: T1, CD154 expressed on D1.1 Jurkat cells; test: flow cytometry: inhibition of the binding of hCD40-mFc-PE to CD154-expressing D1.1 Jurkat cells by serially diluted antibody (Example 5)
Protocol: as §2

Myc-tagged CD154 = biological target: T2, Myc-tagged CD154; test: ELISA: Myc-tagged CD154 captured on anti-Myc antibody 9E10, biotin 342 Fab' titrated, streptavidin-HRP detection (Example 14)
Protocol: In this assay, anti-Myc antibody 9E10 was coated onto an ELISA plate. Myc-tagged CD154 was captured by this antibody. […] The plate was washed and the amount of biotinylated 5c8 Fab bound was determined using streptavidin HRP as a secondary. The signal was graphed and fit using a either a one site binding hyperbola or a two site binding hyperbola curve fit in Prism software (Graph Pad).
A titration of biotin 5c8 Fab′ on CD154 to determine the appropriate concentration for cross-blocking analysis was also performed (FIG. 29B).

[6] = biological target: B2; test: Biacore (SPR): antibody or fragment captured on immobilized anti-human IgG (Fc- or Fab'-specific) F(ab')2, recombinant extracellular domain of human CD154 titrated over it (Example 4)
Protocol: as §1

[7] = biological target: T1, CD154 expressed on D1.1 Jurkat cells; test: cell-based or functional assay; remark: listed apart in the source
[8] = biological target: T1, CD154 expressed on D1.1 Jurkat cells; test: flow cytometry competition binding assay: serially diluted antibody against biotinylated 342 Fab on CD154-expressing D1.1 Jurkat cells, streptavidin-R-phycoerythrin detection (Example 6)
Protocol: A flow cytometry-based assay was used to assess the binding of anti-CD154 antibody to CD154-expressing D1.1 cells. D1.1 Jurkat cells (American Type Culture Collection) were maintained in RPMI 1640 medium (Gibco, 31870-025) containing 10% (v/v) fetal calf serum (FCS), 2 mM glutamine (BioWhittaker, 17-605E) and […] (Mediatech, 30002107). […] The cells were washed three times in FACS buffer with centrifugation at 290×g for 3 minutes in between washes. A 1:500 dilution of streptavadin-R-phycoerythrin conjugate (Jackson Immunoresearch, 016-110-084) in […] FACS buffer was added and the cells were incubated for one hour at 4° C. The cells were washed once and fixed in PBS with 3% formaldehyde at room temperature for 10 minutes. The cells were resuspended in FACS buffer and run on a FacsCalibur (BD). The values for geometric mean fluorescence (FL2) were assessed in all cases.

[9] = biological target: B2; test: Biacore; purified Fab captured on the chip, human CD154 extracellular domain as analyte

Binder: B1
IC50 of inhibition of ICAM-1 (CD54) upregulation on CD40-expressing Ramos B cells co-cultured with CD154-expressing D1.1 Jurkat cells [1]: 100 ng/mL
Kd [2]: 0.005 nM
IC50 [3]: 22 ng/mL

Binder: B2
binding result [4]: binds

Binder: B3
IC50 of inhibition of ICAM-1 (CD54) upregulation on CD40-expressing Ramos B cells co-cultured with CD154-expressing D1.1 Jurkat cells [1]: 192 ng/mL
Kd [2]: 0.015 nM
IC50 [3]: 6 ng/mL

Binder: B4
IC50 of inhibition of ICAM-1 (CD54) upregulation on CD40-expressing Ramos B cells co-cultured with CD154-expressing D1.1 Jurkat cells [1]: 53 ng/mL
Kd [2]: 0.016 nM
IC50 [3]: 8 ng/mL

Binder: B5
binding result (CD40:sCD154 complex): no binding
IC50 [5]: 0.012 µg/mL
EC50 (read off the curve) (Myc-tagged CD154): ~0.1 nM
Kd [6]: 0.028 nM
IC50 of inhibition of ICAM-1 (CD54) upregulation on CD40-expressing Ramos B cells co-cultured with CD154-expressing D1.1 Jurkat cells [7]: 40 ng/mL
IC50 [8]: 0.024 nM

Binder: B6
Kd [9]: 4.55 pM
koff [9]: 6.97e-05 s⁻¹
kon [9]: 1.53e+07 M⁻¹ s⁻¹

— patent US20130045219A1 (UCB, published 2013)
